In the experiment the target is T1, recombinant His-tagged drebrin ADFH-CC construct (human, UniProt Q16643 1-256).
T1 sequence: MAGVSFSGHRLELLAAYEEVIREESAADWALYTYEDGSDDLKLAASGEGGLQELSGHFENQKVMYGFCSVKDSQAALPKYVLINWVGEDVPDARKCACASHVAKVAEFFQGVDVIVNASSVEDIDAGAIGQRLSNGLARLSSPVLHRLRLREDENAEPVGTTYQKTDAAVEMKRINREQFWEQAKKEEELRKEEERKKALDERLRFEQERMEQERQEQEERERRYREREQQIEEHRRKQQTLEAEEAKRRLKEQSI
Description: co-sedimentation.

The record followed here is publication PMC3760615 (The Journal of Cell Biology, 2013).

B1: recombinant His-tagged drebrin BB (blue box) domain (domain or fragment)
chain: VLAAPVEPATADATEIHDAADTIETDTATADTTVANNVPPAATSLIDLWPGNGEGASTLQGEPRAPTPPSGTEVTLAEVPLLDEVAPEPLLPAGEGCATLLNFDELPEPPATFCDPEEVEGESLAAPQTPTLPSALEELEQEQEPEPHLLTNGETTQKEGTQASEGYFSQSQEEEFAQSEELCAKAPPPVFYNKPPEIDITCWDADPVPEEEEGFEGGD
As for B1, the binding result was “binds”.
